Results: article doi:10.1101/2024.02.08.579428

Columns and labels:
GUN1-FL = target: T1, GUN1-FL (Arabidopsis thaliana, UniProt Q9SIC9 1-918); assay: EMSA
T1 sequence: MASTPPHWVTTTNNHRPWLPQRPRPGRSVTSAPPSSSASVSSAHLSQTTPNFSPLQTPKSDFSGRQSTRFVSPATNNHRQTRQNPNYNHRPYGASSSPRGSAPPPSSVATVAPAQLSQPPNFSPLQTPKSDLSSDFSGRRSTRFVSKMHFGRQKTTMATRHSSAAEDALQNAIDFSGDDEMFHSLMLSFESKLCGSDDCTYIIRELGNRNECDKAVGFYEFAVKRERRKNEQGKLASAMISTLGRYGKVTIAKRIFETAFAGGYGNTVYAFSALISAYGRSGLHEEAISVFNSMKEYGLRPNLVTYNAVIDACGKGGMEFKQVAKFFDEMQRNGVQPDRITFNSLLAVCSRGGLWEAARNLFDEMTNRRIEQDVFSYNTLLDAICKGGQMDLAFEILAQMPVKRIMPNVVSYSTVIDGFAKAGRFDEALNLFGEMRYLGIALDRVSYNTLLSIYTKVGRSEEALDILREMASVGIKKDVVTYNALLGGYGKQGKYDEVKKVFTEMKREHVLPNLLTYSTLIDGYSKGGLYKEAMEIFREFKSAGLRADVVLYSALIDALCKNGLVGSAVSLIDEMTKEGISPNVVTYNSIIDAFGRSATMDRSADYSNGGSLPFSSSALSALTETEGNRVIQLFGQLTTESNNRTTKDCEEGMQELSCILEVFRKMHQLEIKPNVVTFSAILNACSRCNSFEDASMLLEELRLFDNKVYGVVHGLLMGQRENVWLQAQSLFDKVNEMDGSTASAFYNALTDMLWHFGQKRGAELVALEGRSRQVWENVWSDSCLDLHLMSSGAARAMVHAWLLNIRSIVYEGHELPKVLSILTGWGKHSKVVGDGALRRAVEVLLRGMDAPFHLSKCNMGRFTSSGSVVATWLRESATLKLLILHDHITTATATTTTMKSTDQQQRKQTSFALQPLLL

GUN1-PS = target: T2, GUN1-PS (Arabidopsis thaliana, UniProt Q9SIC9 232-918); assay: EMSA
T2 sequence: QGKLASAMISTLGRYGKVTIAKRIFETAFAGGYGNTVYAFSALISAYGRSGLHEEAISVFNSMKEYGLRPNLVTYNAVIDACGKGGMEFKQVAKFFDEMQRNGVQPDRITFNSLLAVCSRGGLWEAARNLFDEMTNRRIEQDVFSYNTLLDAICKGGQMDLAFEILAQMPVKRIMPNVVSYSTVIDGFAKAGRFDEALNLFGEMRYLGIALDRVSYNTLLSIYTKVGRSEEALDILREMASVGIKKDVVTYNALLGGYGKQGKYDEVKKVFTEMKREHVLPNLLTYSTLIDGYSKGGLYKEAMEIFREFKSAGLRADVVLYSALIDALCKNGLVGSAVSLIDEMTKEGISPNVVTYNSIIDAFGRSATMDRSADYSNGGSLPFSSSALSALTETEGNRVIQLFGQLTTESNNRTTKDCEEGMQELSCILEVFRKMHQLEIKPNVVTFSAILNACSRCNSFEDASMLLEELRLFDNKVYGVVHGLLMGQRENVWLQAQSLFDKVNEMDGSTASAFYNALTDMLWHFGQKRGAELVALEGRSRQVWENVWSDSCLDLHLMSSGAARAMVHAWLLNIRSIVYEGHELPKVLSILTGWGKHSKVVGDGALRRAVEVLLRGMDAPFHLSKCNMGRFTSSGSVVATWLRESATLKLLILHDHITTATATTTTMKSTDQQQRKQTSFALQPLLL

Q: Does AGAAAAAAAUCUGUUGAUAAAUGAA (ssRNA) [ndhG_118454] bind (GUN1-FL)?
A: binds

Q: What does the source list for AAGAGACAACCUGGCGAACUGAAAC (ssRNA) [23S_104856]?
A: binding result (GUN1-PS): binds; binding result (GUN1-FL): binds
